# Results reported in PMC7300015.
# Experiments:
# [1] = molecular target: HKU2 spike glycoprotein ectodomain (residues 1-1066) (Rhinolophus bat coronavirus HKU2); test: cryo-EM structure
# [2] = molecular target: SADS-CoV spike glycoprotein ectodomain (residues 1-1068) (swine acute diarrhea syndrome coronavirus (SADS-CoV)); test: cryo-EM structure
Substance,stoichiometry N [1],stoichiometry N [2]
HKU2 spike glycoprotein ectodomain (residues 1-1066) (domain or fragment),3,
SADS-CoV spike glycoprotein ectodomain (residues 1-1068) (domain or fragment),,3
